Entries after “also recorded” stand apart in the source; their conditions may differ.
Assays:
[1] = test system: NCI-H460 human lung tumor; assay: Combination with paclitaxel and carboplatin on human lung cancer xenograft tumor; assay type: in vivo, Balb/c nu athymic nude mice; conditions: H460 tumor nude mice
Procedure: 5-6 weeks old Balb/c nu athymic nude mice ♂ (provided by Institute of Experimental Animals, Chinese Academy of Medical Sciences) were subcutaneously inoculated with NCI-H460 human lung tumor. When the tumor grew to the size of about 150 mm3, the mice were divided into following and administered: normal saline control group (ip.), NCPT-1.M1 monotherapy group (15 mg/kg, i.p., once a day for 9 consecutive days), chemotherapy group (PC regimen: paclitaxel 30 mg/kg i.p. and carboplatin 60 mg/kg i.p., administered once on the first day), NCPT-1.M1 combination chemotherapy group (administration manner and dosage of each drug are same as the above). During the experiment, the tumor length diameter (a) and wide diameter (b) were measured every two days with a vernier caliper, and tumor volume (, TV) is calculated according to the following formula: TV=½×a×b^2. From the above, the relative tumor volume (RTV) was calculated according to following formula: RTV=Vt/V0. Wherein V0 is the tumor volume measured on the day of the administration, but before administration (i.e., d0), and Vt is the tumor volume measured every time. The relative tumor proliferation rate T/C (%) is used as an evaluation index.
T/C %=RTVT/RTVC*100%. (RTVT: RTV of the treatment group; […]: RTV of the negative control group).

H460 cells = assay: Cell survival by MTT assay with or without Caspase-8 inhibitor zIETD-fmk; assay type: cell-based, human; conditions: 24 h
Procedure: H460 cells were incubated with NCPT-1.M1 (1.2 or 10 ng/ml) in the presence or absence of Caspase-8 inhibitor zIETD-fmk (concentration of 30 μmmol/L, added 1 h earlier than NCPT-1.M1) for 24 h, and then cell survival rate was measured by MTT assay.
H460 cells were incubated with NCPT-1.M1 of 1.2 ng/ml and 10 ng/ml (the culture method is same as the above) for 24 h, and cell survival rates measured by MTT assay were 60% and 16%, respectively. […] Caspase-8 inhibitor zIETD-fmk (Santa Cruz) was added, and 1 h later, 1.2 ng/ml or 10 ng/ml NCPT-1.M1 was added and co-incubated for 24 h, then, the resulting cell survival rates were 100% and 90%, respectively.

RPMI8226 tumor = assay: Combination with melphalan and prednisone on human multiple myeloma xenograft tumor; assay type: in vivo, Balb/c nu athymic nude mice; conditions: NCPT-1.M1 15 mg/kg ip x10 days; melphalan 0.75 mg/kg po x5 days; prednisone 10 mg/kg po x10 days
Procedure: Male Balb/c nu athymic nude mice (Beijing Huafukang Biotechnology Co., Ltd.) were subcutaneously inoculated with 5×10^6 RPMI8226 tumor cells/mouse. […] The tumor volumes were measured with a caliper every two days.

NCI-H460 cells = assay: Assay of killing activity on lung cancer cell line (crystal violet, IC50); assay type: cell-based, human
Procedure: The NCI-H460 cells (ATCC) were cultured in flasks until logarithmic growth phase, digested with 0.25% trypsin (Amresco), collected by centrifugation (1000 rpm, 5 min), resuspended in RPMI1640 medium (Invitrogen) containing 3% fetal bovine serum (FBS), counted and adjusted to 1.5×10^5/ml cell suspension, added into 96-well culture plates (Nunc) at 100 μl/well, and incubated at 37° C. in 5% CO2 incubator overnight. The sample to be tested was diluted to a certain concentration with 1640 medium containing 3% FBS, and further diluted at 4-fold dilutions (8 dilutions). The supernatant in the culture plate was discarded, and serial dilutions of the sample to be tested was added into the plate at 100 μl/well with a negative control and blank control set aside, incubated at 37° C. under 5% CO2 for 20-24 hours. Following examination under microscope, the supernatant was discarded, each well was added 50 μl 0.05% crystal violet solution (50 mg crystal violet was dissolved in 20 ml anhydrous ethanol, and water was added to the volume of 100 ml, then stored at room temperature) and stained for 3-5 minutes. The crystal violet was carefully washed with flowing water, the remaining water was removed by spin-drying, a destaining solution (50 ml distilled water, 50 ml anhydrous ethanol, and 0.1 ml glacial acetic acid were thoroughly mixed and stored at room temperature) was added at 100 μl/well, then the reading at OD570 was measured on a microplate reader (Bio-Rad 680) (reference wavelength of 630 nm). The inhibitory concentration 50 (IC50) of each sample was calculated by a four-parameter Logistic fitting using Sigmaplot10.0 software. The IC50 for CPT and each mutant of NCPT-1, NCPT-2, and NCPT-3 were calculated, and the activity change of each mutant was represented as a ratio of the IC50 of each mutant to that of CPT (Table 1).

RPMI8226 xenograft tumor = assay: Inhibitory activity on xenograft tumor of human multiple myeloma; assay type: in vivo, athymic nude mice; conditions: 15 mg/kg i.p. once a day for 8 consecutive days
Procedure: FIG. 8. […] Athymic nude mice (Beijing Huafukang Biotechnology Co., Ltd.) were subcutaneously inoculated with RPMI8226 tumor cells (5×10^6/mouse). When the tumor grew to about 500 mm^3, the mice were divided into several groups, which were intraperitoneally injected with normal saline (control group), NCPT-1.M1 (15 mg/kg) and wild-type TRAIL (wtTRAIL, 15 mg/kg or 45 mg/kg) respectively once a day for 8 consecutive days. The tumor volumes were measured with a vernier caliper every two days.
Athymic nude mice (Beijing Huafukang Biotechnology Co., Ltd.) were subcutaneously inoculated with 5×10^6 RPMI8226 tumor cells/mouse. When the tumor grew to the volume of 500 mm3, the mice were divided into several groups, which were intraperitoneally injected with normal saline (negative control group), NCPT-1.M1 (15 mg/kg) and wtTRAIL (15 mg/kg or 45 mg/kg) once a day for 8 consecutive days. The tumor volumes were measured with a caliper every two days.

[2] = NCPT-1.M1 15 mg/kg i.p. x9 days, paclitaxel 30 mg/kg, carboplatin 60 mg/kg i.p. once day 1

B1: NCPT-1.M1: MG+His6+NCPT-1 fusion protein, SEQ ID NO: 5 (protein)
chain: MGHHHHHHTLSSPNSKNEKALGRKINSWESSRSGHSFLSNLHLRNGELVIHEKGFYYIYSQTYFRFQEEIKENTKNDKQMVQYIYKYTSYPDPILLMKSARNSCWSKDAEYGLYSIYQGGIFELKENDRIFVSVTNEHLIDMDHEASFFGAFLVGGGGGGRVAAHITGTRGRSNT
modifications: NCPT-1.M1 polypeptide sequence
- Body weight(g) begining [1, 2]: 19.9 ± 3.08 g
- Body weight(g) ending [1, 2]: 20.9 ± 3.32 g
- RTV ([1]; same regimens): 7.32 ± 3.736
- T/C ([1]; same regimens): 43.9%
- Tumor size(mm^3) begining ([1]; same regimens, begining): 156 ± 82.6 mm^3
- Tumor size(mm^3) ending ([1]; same regimens, ending): 867 ± 255.7 mm^3
- cell survival rate (H460 cells; 1.2 ng/ml, 30 μmol/L zIETD-fmk added 1 h earlier): 100%
- cell survival rate (H460 cells; 1.2 ng/ml, no inhibitor): 60%
- cell survival rate (H460 cells; 10 ng/ml, 30 μmol/L zIETD-fmk added 1 h earlier): 90%
- cell survival rate (H460 cells; 10 ng/ml, no inhibitor): 16%
- mice in which the tumors completely disappeared (RPMI8226 tumor): 16%
- Ratio of IC50 of mutants to IC50 of CPT (H460 cells) (NCI-H460 cells; 20-24 hours, crystal violet): 0.1
- killing activity compared to that of CPT (NCI-H460 cells; based on IC50): significantly higher than that of CPT
- Tumor growth rate compared with wtTRAIL 45 mg/kg (RPMI8226 xenograft tumor): significantly lower than that of TRAIL group with a dose of 45 mg/kg; also recorded: significantly lower than that of wtTRAIL group with a dose of 45 mg/kg

Reference: US9289468B2, “Fusion protein comprising circularly permuted form of trail/Apo2L, coding gene and use thereof” (Beijing Sunbio Biotech Co. Ltd., priority 2011, dated 2016)
